Source: PMC11594380

Target: SARS-CoV-2 Wuhan spike receptor-binding domain (RBD), His-tagged (SARS-CoV-2) (UniProt P0DTC2)
Assay: ELISA

WTL_3H, wild-type-like tri-helical ACE2 fragment (from UniProt Q9BYF1 18-805) (domain or fragment)
EC50: 253 nM | Kd: 192 nM
